Data reported in patent US20050123972A1 (Bristol-Myers Squibb, published 2005).

T1: wild-type human CCR3 (endogenous, on native human eosinophils) (human, UniProt P51677 1-355)
T1 construct: This is the endogenous receptor on human eosinophils; also called eotaxin receptor; wild-type intact receptor in eosinophils
T1 sequence: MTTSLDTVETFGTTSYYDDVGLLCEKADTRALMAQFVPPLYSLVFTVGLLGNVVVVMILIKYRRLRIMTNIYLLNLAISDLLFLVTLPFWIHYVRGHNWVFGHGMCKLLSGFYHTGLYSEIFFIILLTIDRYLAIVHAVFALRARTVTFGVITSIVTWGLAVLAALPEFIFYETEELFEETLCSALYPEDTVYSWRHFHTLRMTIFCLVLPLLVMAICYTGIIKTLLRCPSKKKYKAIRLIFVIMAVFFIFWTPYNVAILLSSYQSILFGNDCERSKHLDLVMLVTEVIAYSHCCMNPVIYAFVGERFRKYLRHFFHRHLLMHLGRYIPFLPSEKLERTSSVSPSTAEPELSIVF

B1: human eotaxin (125I-labeled human eotaxin, Perkin Elmer #NEX-314; unlabeled recombinant human eotaxin, R&D Systems #320-EO/CF) (ligand)
chain: not shown
modifications: 125I label (position not given) on the tracer form
notes: also called labeled (hot) eotaxin

Key:
[1] = biological target: T1, wild-type human CCR3 (endogenous, on …); experiment: 125I-eotaxin binding to cells, filter plate assay
Procedure: (§1) Invest. 97:604). In order to compare the ability of cells expressing chimeric human CCR3/2 molecules to that of cells expressing endogenous human CCR3 to bind eotaxin, a binding assay was performed. Depending upon the questions being asked, the cells in question were either human or mouse eosinophils, CHO-K1 cells expressing recombinant CCR3 or CCR3/2, parental CHO-K1 cells or other cell types. All assay steps were conducted at room temperature. Multiscreen assay plates (#MABVN1250, Millipore Inc., Marlborough, Mass.) were incubated with 100 μl/well of blocking solution (7.5 μg/ml protamine in PBS) to block non-specific binding. After 20 minutes, the blocking solution was removed and replaced with 100 μl of binding buffer, (RPMI 1640 (Life Technologies, Grand Island, N.Y.) containing 0.1% bovine serum albumin and 20 mM HEPES buffer) and incubated for at least an additional 10 minutes.
(§2) When ready to use plate(s), the following procedure was employed. […]
(§3) Binding data were analyzed using Microsoft EXCEL and then graphed using […] […]

[2] = biological target: B1; experiment: 125I-eotaxin binding to CHO CCR3/2 clone 5.5 cells, filter plate assay (FIG. 1)
Procedure: as §1, §2, §3

| Binder | binding result [1] | binding result [2] |
| --- | --- | --- |
| B1 | binds | – |
| chimeric CCR3/2 receptor (human CCR3 residues 1-310 joined to the cytoplasmic tail of human CCR2 isoform B), expressed on CHO-K1 cells (receptor, Expressed from the pFLAG-CMV-3 vector in CHO-K1 cells; also called CCR3/2 chimera; CHO CCR3/2 clone 5.5) MTTSLDTVETFGTTSYYDDVGLLCEKADTRALMAQFVPPLYSLVFTVGLLGNVVVVMILIKYRRLRIMTNIYLLNLAISDLLFLVTLPFWIHYVRGHNWVFGHGMCKLLSGFYHTGLYSEIFFIILLTIDRYLAIVHAVFALRARTVTFGVITSIVTWGLAVLAALPEFIFYETEELFEETLCSALYPEDTVYSWRHFHTLRMTIFCLVLPLLVMAICYTGIIKTLLRCPSKKKYKAIRLIFVIMAVFFIFWTPYNVAILLSSYQSILFGNDCERSKHLDLVMLVTEVIAYSHCCMNPVIYAFVGERFRKYLSVFFRKHITKRFCKQCPVFYRETVDGVTSTNTPSTGEQEVSAGL | – | binds |
